pKd: −log10 of the molar value.

The test has as its target human plasma fibrinogen (human) (UniProt P02671). Put plainly: ELISA.
Chain of UniProt P02671 (P02671 36-866, chain 1 of 3): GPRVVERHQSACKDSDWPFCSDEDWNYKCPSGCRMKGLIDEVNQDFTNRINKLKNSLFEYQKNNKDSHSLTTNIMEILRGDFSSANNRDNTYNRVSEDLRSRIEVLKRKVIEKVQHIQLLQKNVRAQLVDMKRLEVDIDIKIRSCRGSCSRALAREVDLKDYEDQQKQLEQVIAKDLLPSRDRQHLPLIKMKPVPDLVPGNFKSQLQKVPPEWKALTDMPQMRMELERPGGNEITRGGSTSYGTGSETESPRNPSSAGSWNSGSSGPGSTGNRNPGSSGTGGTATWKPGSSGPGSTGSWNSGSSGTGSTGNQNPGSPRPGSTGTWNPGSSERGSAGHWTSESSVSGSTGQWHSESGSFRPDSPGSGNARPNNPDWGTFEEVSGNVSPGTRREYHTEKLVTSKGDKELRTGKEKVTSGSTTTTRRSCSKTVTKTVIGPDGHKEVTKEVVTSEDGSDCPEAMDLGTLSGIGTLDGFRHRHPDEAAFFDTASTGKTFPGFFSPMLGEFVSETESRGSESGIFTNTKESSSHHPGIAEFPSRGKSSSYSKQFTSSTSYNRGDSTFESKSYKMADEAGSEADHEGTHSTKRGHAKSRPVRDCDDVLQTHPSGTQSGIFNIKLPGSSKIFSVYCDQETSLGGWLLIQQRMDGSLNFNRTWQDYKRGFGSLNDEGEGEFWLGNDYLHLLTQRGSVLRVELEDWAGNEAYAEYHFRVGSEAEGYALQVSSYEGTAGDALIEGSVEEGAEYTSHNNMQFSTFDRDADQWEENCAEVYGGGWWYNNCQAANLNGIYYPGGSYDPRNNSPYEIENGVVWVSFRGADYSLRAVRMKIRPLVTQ
Chain of UniProt P02671 (P02675 45-491, chain 2 of 3, further chain): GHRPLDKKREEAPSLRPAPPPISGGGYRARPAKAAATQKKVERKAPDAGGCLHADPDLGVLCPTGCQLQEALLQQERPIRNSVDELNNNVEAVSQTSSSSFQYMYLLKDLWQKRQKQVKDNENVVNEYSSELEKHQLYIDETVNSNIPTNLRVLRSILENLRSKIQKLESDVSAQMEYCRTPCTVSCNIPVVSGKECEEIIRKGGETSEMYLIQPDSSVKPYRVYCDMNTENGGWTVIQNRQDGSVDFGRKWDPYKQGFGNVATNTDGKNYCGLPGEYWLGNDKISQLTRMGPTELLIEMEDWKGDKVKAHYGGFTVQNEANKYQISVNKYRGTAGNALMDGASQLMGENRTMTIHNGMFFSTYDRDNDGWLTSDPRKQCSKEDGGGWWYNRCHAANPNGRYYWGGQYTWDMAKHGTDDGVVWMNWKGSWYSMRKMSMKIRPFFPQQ
Chain of UniProt P02671 (P02679 27-453, chain 3 of 3, further chain): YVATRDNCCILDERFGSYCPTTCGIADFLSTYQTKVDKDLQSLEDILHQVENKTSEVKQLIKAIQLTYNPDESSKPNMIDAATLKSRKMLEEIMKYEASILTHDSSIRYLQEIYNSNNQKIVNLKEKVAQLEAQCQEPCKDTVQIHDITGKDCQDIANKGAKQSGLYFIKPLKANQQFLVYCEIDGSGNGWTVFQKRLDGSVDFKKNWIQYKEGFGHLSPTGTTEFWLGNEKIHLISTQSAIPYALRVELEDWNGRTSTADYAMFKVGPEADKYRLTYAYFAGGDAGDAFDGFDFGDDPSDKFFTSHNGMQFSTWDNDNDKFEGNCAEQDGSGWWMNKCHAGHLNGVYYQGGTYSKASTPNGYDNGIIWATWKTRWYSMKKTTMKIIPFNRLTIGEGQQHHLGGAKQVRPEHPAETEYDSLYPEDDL

As to “Histidine-tagged LigBCen2R (amino acids 1014–1123 of LigB) (domain or fragment)”, the pKd is 3.93. The substance “Histidine-tagged LigB-12 (amino acids 1029–1123 of LigB) (domain or fragment)” had a pKd of 3.90.
